The source of these data is US20250230251A1.

The target in assay [1] is extracellular matrix (ECM) proteins. Put plainly: ECM (Matrigel) ELISA, 0.1 µM antibody.
Assay [2] has the same target. Put plainly: ECM (Matrigel) ELISA, 1 µM antibody. Background: An ELISA detects its analyte on a solid surface through an enzyme-linked reagent.

B1: P21 (antibody, human IgG1, kappa, V domains shown)
VH: QVQLQQSGPGLVKPSETLSLTCTVSGGSISNYYWTWIRQPPGKGLEWIGYISDSGSTNYNPSLKSRVTISVDTSKNQFSLKLSSVTAADTAVYYCARETIVVRGFYFYVMDVWGQGTTVTVSS
VL: AIQLTQSPSSLSASVGDRVTITCRASQGISSALAWYQQRPGKAPKLLIYDASNWESGVPSRFSGSGSGTDFTLTISSLQPEDFATYYCQQFNSYPWTFGQGTKVEIKR
For the molecule B1, the ECM score in assay [1] and in assay [2] was 1.2 in each case.
